Article PMC8368996, “Interactions between AMOT PPxY motifs and NEDD4L WW domains function in HIV-1 release” (The Journal of Biological Chemistry, 2021)
Read-outs that look alike come from different tables or passages of the source. One block for each substance: values may come before it.

Columns and labels:
[1] = molecular target: AMOT PPxY3 (Homo sapiens) (UniProt Q4VCS5); details: cited from earlier work
[2] = molecular target: AMOT PPxY1 peptide (residues 100-114), Oregon Green 488-labelled (UniProt Q4VCS5); assay: fluorescence polarisation; 1 nM Oregon Green-labelled PPxY peptide, 2-fold dilutions of WW domain; 20 mM Tris pH 7.5, 150 mM NaCl, 0.5 mM TCEP; 26 °C (legend: 25 °C)
[3] = molecular target: AMOT PPxY1 E104K/E105K mutant peptide (UniProt Q4VCS5); assay: as above
[4] = molecular target: AMOT PPxY1 A112K mutant peptide (UniProt Q4VCS5); assay: as above
[5] = molecular target: AMOT PPxY2 P239L mutant peptide (UniProt Q4VCS5); assay: as above
[6] = molecular target: AMOT PPxY1 peptide (residues 100-114), Oregon Green 488-labelled (UniProt Q4VCS5); assay: as above; remark: listed apart in the source
[7] = molecular target: AMOT(1-300)-ALEXA488 (UniProt Q4VCS5); assay: fluorescence polarisation
Chain of AMOT(1-300)-ALEXA488 (Q4VCS5 1-300): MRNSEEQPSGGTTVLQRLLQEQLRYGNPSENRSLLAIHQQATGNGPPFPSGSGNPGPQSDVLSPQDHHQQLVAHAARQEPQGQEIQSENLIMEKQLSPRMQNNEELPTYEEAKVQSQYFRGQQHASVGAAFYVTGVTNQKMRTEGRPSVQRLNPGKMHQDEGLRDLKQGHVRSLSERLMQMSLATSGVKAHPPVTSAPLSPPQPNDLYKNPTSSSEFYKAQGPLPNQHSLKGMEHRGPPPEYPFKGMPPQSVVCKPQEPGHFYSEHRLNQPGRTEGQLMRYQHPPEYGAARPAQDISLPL

Chain of KIBRA WW1-WW2 (Q8IX03 6-86): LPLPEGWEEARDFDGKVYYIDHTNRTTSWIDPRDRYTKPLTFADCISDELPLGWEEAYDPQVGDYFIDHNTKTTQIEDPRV

Substance: KIBRA WW1-WW2 (from UniProt Q8IX03)
Kd [1]: 0.096 µM

Kd [2]: 4.8 µM
Kd [3]: 31 µM
Kd [4]: 40 µM
fold reduction of binding against wt PPxY2 [5]: 2.8 fold
Kd [6]: 4.5 µM
Substance: NEDD4L WW3 domain (domain or fragment)

Kd [7]: 2.7 µM
Substance: full-length recombinant NEDD4L (isoform 2) (enzyme)
